Results reported in article PMC8298264, “Function of cofactor Akirin2 in the regulation of gene expression in model human neutrophil-like HL60 cells” (Bioscience Reports, 2021).

B1: sp¦Q9BY43¦CHM4A_HUMAN (protein, UniProt Q9BY43 1-222, looked up)
Charged multivesicular body …: MSGLGRLFGKGKKEKGPTPEEAIQKLKETEKILIKKQEFLEQKIQQELQTAKKYGTKNKRAALQALRRKKRFEQQLAQTDGTLSTLEFQREAIENATTNAEVLRTMELAAQSMKKAYQDMDIDKVDELMTDITEQQEVAQQISDAISRPMGFGDDVDEDELLEELEELEQEELAQELLNVGDKEEEPSVKLPSVPSTHLPAGPAPKVDEDEEALKQLAEWVS
B2: sp¦P10599¦THIO_HUMAN (protein, UniProt P10599 2-105, looked up)
Thioredoxin: VKQIESKTAFQEALDAAGDKLVVVDFSATWCGPCKMIKPFFHSLSEKYSNVIFLEVDVDDCQDVASECEVKCMPTFQFFKKGQKVGEFSGANKEKLEATINELV
B3: sp¦Q8WW12¦PCNP_HUMAN (protein, UniProt Q8WW12 2-178, looked up)
PEST proteolytic …: ADGKAGDEKPEKSQRAGAAGGPEEEAEKPVKTKTVSSSNGGESSSRSAEKRSAEEEAADLPTKPTKISKFGFAIGSQTTKKASAISIKLGSSKPKETVPTLAPKTLSVAAAFNEDEDSEPEEMPPEAKMRMKNIGRDTPTSAGPNSFNKGKHGFSDNQKLWERNIKSHLGNVHDQDN
B4: sp¦P52209¦6PGD_HUMAN (protein, UniProt P52209 1-483, looked up)
6-phosphogluconate …: MAQADIALIGLAVMGQNLILNMNDHGFVVCAFNRTVSKVDDFLANEAKGTKVVGAQSLKEMVSKLKKPRRIILLVKAGQAVDDFIEKLVPLLDTGDIIIDGGNSEYRDTTRRCRDLKAKGILFVGSGVSGGEEGARYGPSLMPGGNKEAWPHIKTIFQGIAAKVGTGEPCCDWVGDEGAGHFVKMVHNGIEYGDMQLICEAYHLMKDVLGMAQDEMAQAFEDWNKTELDSFLIEITANILKFQDTDGKHLLPKIRDSAGQKGTGKWTAISALEYGVPVTLIGEAVFARCLSSLKDERIQASKKLKGPQKFQFDGDKKSFLEDIRKALYASKIISYAQGFMLLRQAATEFGWTLNYGGIALMWRGGCIIRSVFLGKIKDAFDRNPELQNLLLDDFFKSAVENCQDSWRRAVSTGVQAGIPMPCFTTALSFYDGYRHEMLPASLIQAQRDYFGAHTYELLAKPGQFIHTNWTGHGGTVSSSSYNA
B5: sp¦P54727¦RD23B_HUMAN (protein, UniProt P54727 1-409, looked up)
UV excision repair protein …: MQVTLKTLQQQTFKIDIDPEETVKALKEKIESEKGKDAFPVAGQKLIYAGKILNDDTALKEYKIDEKNFVVVMVTKPKAVSTPAPATTQQSAPASTTAVTSSTTTTVAQAPTPVPALAPTSTPASITPASATASSEPAPASAAKQEKPAEKPAETPVATSPTATDSTSGDSSRSNLFEDATSALVTGQSYENMVTEIMSMGYEREQVIAALRASFNNPDRAVEYLLMGIPGDRESQAVVDPPQAASTGAPQSSAVAAAAATTTATTTTTSSGGHPLEFLRNQPQFQQMRQIIQQNPSLLPALLQQIGRENPQLLQQISQHQEHFIQMLNEPVQEAGGQGGGGGGGSGGIAEAGSGHMNYIQVTPQEKEAIERLKALGFPEGLVIQAYFACEKNENLAANFLLQQNFDED
B6: sp¦O75937¦DNJC8_HUMAN (protein, UniProt O75937 2-253, looked up)
DnaJ homolog subfamily C …: AASGESGTSGGGGSTEEAFMTFYSEVKQIEKRDSVLTSKNQIERLTRPGSSYFNLNPFEVLQIDPEVTDEEIKKRFRQLSILVHPDKNQDDADRAQKAFEAVDKAYKLLLDQEQKKRALDVIQAGKEYVEHTVKERKKQLKKEGKPTIVEEDDPELFKQAVYKQTMKLFAELEIKRKEREAKEMHERKRQREEEIEAQEKAKREREWQKNFEESRDGRVDSWRNFQANTKGKKEKKNRTFLRPPKVKMEQRE
B7: sp¦P49458¦SRP09_HUMAN (protein, UniProt P49458 2-86, looked up)
Signal recognition particle 9 …: PQYQTWEEFSRAAEKLYLADPMKARVVLKYRHSDGNLCVKVTDDLVCLVYKTDQAQDVKKIEKFHSQLMRLMVAKEARNVTMETE
B8: sp¦O43396¦TXNL1_HUMAN (protein, UniProt O43396 2-289, looked up)
Thioredoxin-like protein 1: VGVKPVGSDPDFQPELSGAGSRLAVVKFTMRGCGPCLRIAPAFSSMSNKYPQAVFLEVDVHQCQGTAATNNISATPTFLFFRNKVRIDQYQGADAVGLEEKIKQHLENDPGSNEDTDIPKGYMDLMPFINKAGCECLNESDEHGFDNCLRKDTTFLESDCDEQLLITVAFNQPVKLYSMKFQGPDNGQGPKYVKIFINLPRSMDFEEAERSEPTQALELTEDDIKEDGIVPLRYVKFQNVNSVTIFVQSNQGEEETTRISYFTFIGTPVQATNMNDFKRVVGKKGESH
B9: sp¦O75792¦RNH2A_HUMAN (protein, UniProt O75792 1-299, looked up)
Ribonuclease H2 subunit A: MDLSELERDNTGRCRLSSPVPAVCRKEPCVLGVDEAGRGPVLGPMVYAICYCPLPRLADLEALKVADSKTLLESERERLFAKMEDTDFVGWALDVLSPNLISTSMLGRVKYNLNSLSHDTATGLIQYALDQGVNVTQVFVDTVGMPETYQARLQQSFPGIEVTVKAKADALYPVVSAASICAKVARDQAVKKWQFVEKLQDLDTDYGSGYPNDPKTKAWLKEHVEPVFGFPQFVRFSWRTAQTILEKEAEDVIWEDSASENQEGLRKITSYFLNEGSQARPRSSHRYFLERGLESATSL
B10: sp¦P68104¦EF1A1_HUMAN (protein, UniProt P68104 2-462, looked up)
Elongation factor 1-alpha 1: GKEKTHINIVVIGHVDSGKSTTTGHLIYKCGGIDKRTIEKFEKEAAEMGKGSFKYAWVLDKLKAERERGITIDISLWKFETSKYYVTIIDAPGHRDFIKNMITGTSQADCAVLIVAAGVGEFEAGISKNGQTREHALLAYTLGVKQLIVGVNKMDSTEPPYSQKRYEEIVKEVSTYIKKIGYNPDTVAFVPISGWNGDNMLEPSANMPWFKGWKVTRKDGNASGTTLLEALDCILPPTRPTDKPLRLPLQDVYKIGGIGTVPVGRVETGVLKPGMVVTFAPVNVTTEVKSVEMHHEALSEALPGDNVGFNVKNVSVKDVRRGNVAGDSKNDPPMEAAGFTAQVIILNHPGQISAGYAPVLDCHTAHIACKFAELKEKIDRRSGKKLEDGPKFLKSGDAAIVDMVPGKPMCVESFSDYPPLGRFAVRDMRQTVAVGVIKAVDKKAAGAGKVTKSAQKAQKAK
B11: sp¦P04075¦ALDOA_HUMAN (protein, UniProt P04075 2-364, looked up)
Fructose-bisphosphate …: PYQYPALTPEQKKELSDIAHRIVAPGKGILAADESTGSIAKRLQSIGTENTEENRRFYRQLLLTADDRVNPCIGGVILFHETLYQKADDGRPFPQVIKSKGGVVGIKVDKGVVPLAGTNGETTTQGLDGLSERCAQYKKDGADFAKWRCVLKIGEHTPSALAIMENANVLARYASICQQNGIVPIVEPEILPDGDHDLKRCQYVTEKVLAAVYKALSDHHIYLEGTLLKPNMVTPGHACTQKFSHEEIAMATVTALRRTVPPAVTGITFLSGGQSEEEASINLNAINKCPLLKPWALTFSYGRALQASALKAWGGKKENLKAAQEEYVKRALANSLACQGKYTPSGQAGAAASESLFVSNHAY
B12: sp¦Q9HB71¦CYBP_HUMAN (protein, UniProt Q9HB71 2-228, looked up)
Calcyclin-binding protein: ASEELQKDLEEVKVLLEKATRKRVRDALTAEKSKIETEIKNKMQQKSQKKAELLDNEKPAAVVAPITTGYTVKISNYGWDQSDKFVKIYITLTGVHQVPTENVQVHFTERSFDLLVKNLNGKSYSMIVNNLLKPISVEGSSKKVKTDTVLILCRKKVENTRWDYLTQVEKECKEKEKPSYDTETDPSEGLMNVLKKIYEDGDDDMKRTINKAWVESREKQAKGDTEF

System: human HL60 cells
Test: SWATH-MS proteomics, differential protein representation, akirin2 KO vs WT HL60 cells
Format: cell-based
Details: Over-represented in KO; KO vs WT HL60 cells
Experimental: Total proteins were extracted from WT and akirin2 KO HL60 cells using the AllPrep DNA/RNA/Protein Mini Kit (Qiagen) and protein concentration was determined using the BCA Protein Assay with BSA (Sigma–Aldrich) as standard. Protein extracts (150 µg per sample, n=3 biological replicates) from each WT and KO cells were trypsin digested using the FASP Protein Digestion Kit (Expedeon Ltd., Abcam, Cambridge, U.K.) and sequencing grade trypsin (Promega, Madison, WI, U.S.A.) following manufacturer’s recommendations. The resulting peptides were finally desalted on to OMIX Pipette tips C18 (Agilent Technologies, Santa Clara, CA, U.S.A.), dried down and stored at −20 °C until mass spectrometry analysis. […] Three micrograms of each protein digest from the three biological replicates of WT and akirin2 KO HL60 cells were used for the generation of the reference spectral ion library as part of the SWATH-MS analysis.
Peptides were eluted in a 120-min gradient from 5 to 30% solvent B in solvent A followed by 15-min gradient from 30 to 60% solvent B in solvent A (solvent A: 0.1% formic acid in water, solvent B: 0.1% formic acid in acetonitrile) and directly injected into the mass spectrometer for analysis. For IDA experiments, the mass spectrometer was set to scanning full spectra (350–1400 m/z) using 250 ms accumulation time per spectrum, followed by up to 50 MS/MS scans (100–1500 m/z). Candidate ions with a charge state between +2 and +5 counts per second above a minimum threshold of 100 were isolated for fragmentation. One MS/MS spectrum was collected for 100 ms, before adding those precursor ions to the exclusion list for 15 s (mass spectrometer operated by Analyst TF 1.6, AB Sciex). Dynamic background subtraction was turned off. MS/MS analyses were recorded in high-sensitivity mode with rolling collision energy on and a collision energy spread of 5. For SWATH quantitative analysis, six independent samples (three replicates from WT and akirin2 KO HL60 cells, 5 µg each) were subjected to the cyclic DIA of mass spectra using the SWATH variable windows calculator (V 1.0, AB Sciex) and the SWATH acquisition method editor (AB Sciex), similar to established methods. […] For these experiments, a 50-ms survey scan (350–1400 m/z) was acquired at the beginning of each cycle, and SWATH–MS/MS spectra were collected from 100–1500 m/z for 70 ms at high-sensitivity mode, resulting in a cycle time of 3.6 s. Collision energy for each window was determined according to the calculation for a charge +2 ion-centered upon the window with a collision energy spread of 15. To create a spectral library of all the detectable peptides in the samples, the IDA MS raw files were combined and subjected to database search in unison using ProteinPilot software v. 5.0.1 (AB Sciex) with the Paragon algorithm. […] The detected protein threshold was set at 0.05. An independent false discovery rate (FDR) analysis, using the target–decoy approach provided by Protein Pilot (AB Sciex; https://sciex.com/products/software/proteinpilot-software), was used to assess the quality of identifications. Positive identifications were considered when identified proteins reached 1% of global FDR. […] Global normalization was performed according to the Total Area Sums (TAS) of all detected proteins in the samples. […] Heatmaps were prepared using the Heatmapper (http://www.heatmapper.ca/expression/) with average linkage and Euclidean distance measurement method.

Molecule | Fold Change | Log (Fold Change)
B1 | 1.396 | 0.1447
B2 | 1.394 | 0.1444
B3 | 1.373 | 0.1375
B4 | 1.367 | 0.1359
B5 | 1.363 | 0.1346
B6 | 1.352 | 0.1309
B7 | 1.349 | 0.1301
B8 | 1.348 | 0.1296

Same assay, conditions: SWATH-MS, akirin2 KO vs WT HL60 cells; over-represented in KO

Molecule | Fold Change | Log (Fold Change)
B9 | 1.47 | 0.1673
B10 | 1.443 | 0.1593
B11 | 1.436 | 0.1572
B12 | 1.407 | 0.1482
